Holding throughout (test): cleavage_in_vitro
The test system of data set [1] is OMNI-121 (metagenomic, unknown). The conditions noted are these: TXTL; PAM NNAAAYNN
Data set [2] has as its system T1, OMNI-122 (metagenomic, unknown).
T1 sequence: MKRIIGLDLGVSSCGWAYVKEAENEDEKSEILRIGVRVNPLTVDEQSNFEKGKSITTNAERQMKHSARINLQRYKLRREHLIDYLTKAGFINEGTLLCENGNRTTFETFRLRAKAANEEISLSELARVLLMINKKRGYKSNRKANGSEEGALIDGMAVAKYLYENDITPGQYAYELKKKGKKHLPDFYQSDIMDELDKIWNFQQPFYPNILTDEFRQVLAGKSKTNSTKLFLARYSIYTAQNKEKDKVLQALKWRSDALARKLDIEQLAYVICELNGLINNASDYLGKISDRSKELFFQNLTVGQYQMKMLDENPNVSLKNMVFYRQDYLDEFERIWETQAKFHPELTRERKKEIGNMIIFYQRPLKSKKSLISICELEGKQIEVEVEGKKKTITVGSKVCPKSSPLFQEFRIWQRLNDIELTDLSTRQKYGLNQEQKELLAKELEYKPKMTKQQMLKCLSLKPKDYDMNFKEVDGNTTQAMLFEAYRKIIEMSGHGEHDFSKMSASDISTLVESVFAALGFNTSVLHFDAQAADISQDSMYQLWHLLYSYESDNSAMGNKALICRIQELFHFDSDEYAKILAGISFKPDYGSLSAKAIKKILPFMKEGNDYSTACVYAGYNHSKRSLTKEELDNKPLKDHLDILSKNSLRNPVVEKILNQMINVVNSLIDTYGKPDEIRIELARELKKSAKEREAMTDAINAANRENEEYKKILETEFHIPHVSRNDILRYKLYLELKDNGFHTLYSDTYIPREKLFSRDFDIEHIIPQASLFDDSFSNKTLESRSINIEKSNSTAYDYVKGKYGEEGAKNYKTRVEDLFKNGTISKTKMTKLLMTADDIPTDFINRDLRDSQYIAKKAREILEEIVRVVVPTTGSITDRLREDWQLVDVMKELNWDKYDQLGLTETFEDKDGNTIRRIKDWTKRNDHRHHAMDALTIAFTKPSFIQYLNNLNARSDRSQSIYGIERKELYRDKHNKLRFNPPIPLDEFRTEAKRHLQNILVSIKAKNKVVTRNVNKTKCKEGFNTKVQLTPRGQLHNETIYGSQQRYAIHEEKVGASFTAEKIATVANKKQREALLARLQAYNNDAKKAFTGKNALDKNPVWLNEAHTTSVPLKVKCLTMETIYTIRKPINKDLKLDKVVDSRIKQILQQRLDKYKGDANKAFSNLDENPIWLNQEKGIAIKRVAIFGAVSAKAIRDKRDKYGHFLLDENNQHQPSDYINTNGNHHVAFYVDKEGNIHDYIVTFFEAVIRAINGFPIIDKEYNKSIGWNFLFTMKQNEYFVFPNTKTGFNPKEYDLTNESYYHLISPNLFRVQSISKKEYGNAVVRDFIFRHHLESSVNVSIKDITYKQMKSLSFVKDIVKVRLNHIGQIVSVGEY
The conditions noted are these: TXTL; PAM NRYTTTYN

In data set [3] the test system is OMNI-119 (metagenomic, unknown). To be noted: TXTL; PAM NNACNNNN
Sequence of OMNI-119 (metagenomic, unknown) (chain, as listed by the source): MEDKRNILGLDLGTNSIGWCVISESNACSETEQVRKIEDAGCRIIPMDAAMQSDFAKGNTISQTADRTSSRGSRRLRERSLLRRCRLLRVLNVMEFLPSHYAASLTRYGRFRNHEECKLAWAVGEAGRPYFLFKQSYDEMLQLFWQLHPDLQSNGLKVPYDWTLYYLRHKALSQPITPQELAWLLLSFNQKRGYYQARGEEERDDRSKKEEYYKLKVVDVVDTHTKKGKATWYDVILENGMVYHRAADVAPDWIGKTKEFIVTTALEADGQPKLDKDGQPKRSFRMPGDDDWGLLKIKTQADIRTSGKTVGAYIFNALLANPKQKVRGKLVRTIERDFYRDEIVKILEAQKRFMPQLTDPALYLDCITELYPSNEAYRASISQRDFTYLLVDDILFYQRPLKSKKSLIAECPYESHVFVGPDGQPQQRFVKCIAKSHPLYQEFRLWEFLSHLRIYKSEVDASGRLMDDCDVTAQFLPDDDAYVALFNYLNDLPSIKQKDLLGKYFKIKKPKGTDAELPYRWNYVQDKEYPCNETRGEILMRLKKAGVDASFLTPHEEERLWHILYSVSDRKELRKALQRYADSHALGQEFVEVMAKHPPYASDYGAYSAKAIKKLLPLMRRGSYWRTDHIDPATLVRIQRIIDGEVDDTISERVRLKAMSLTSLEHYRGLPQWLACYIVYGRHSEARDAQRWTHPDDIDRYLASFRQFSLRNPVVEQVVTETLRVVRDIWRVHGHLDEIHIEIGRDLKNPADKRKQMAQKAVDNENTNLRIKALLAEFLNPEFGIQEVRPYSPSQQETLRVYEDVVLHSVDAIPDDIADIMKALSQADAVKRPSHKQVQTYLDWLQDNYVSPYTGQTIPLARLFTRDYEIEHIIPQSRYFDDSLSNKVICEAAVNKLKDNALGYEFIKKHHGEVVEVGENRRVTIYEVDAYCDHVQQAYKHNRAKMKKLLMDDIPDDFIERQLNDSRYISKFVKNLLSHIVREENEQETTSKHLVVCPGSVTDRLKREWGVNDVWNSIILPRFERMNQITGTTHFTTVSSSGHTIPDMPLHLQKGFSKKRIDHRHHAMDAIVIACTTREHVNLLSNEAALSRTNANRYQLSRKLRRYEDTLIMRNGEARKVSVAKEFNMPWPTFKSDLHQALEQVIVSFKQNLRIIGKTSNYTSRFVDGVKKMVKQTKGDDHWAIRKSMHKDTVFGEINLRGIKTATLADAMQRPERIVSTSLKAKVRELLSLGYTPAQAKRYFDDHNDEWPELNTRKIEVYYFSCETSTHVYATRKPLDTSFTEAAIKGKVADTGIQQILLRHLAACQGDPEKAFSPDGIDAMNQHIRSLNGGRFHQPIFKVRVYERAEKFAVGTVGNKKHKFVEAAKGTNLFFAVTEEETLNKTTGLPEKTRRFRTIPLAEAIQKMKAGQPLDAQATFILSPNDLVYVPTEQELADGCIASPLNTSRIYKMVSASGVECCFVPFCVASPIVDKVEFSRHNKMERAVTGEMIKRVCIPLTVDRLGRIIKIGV
Data set [4] concerns T2, OMNI-120 (metagenomic, unknown).
T2 sequence: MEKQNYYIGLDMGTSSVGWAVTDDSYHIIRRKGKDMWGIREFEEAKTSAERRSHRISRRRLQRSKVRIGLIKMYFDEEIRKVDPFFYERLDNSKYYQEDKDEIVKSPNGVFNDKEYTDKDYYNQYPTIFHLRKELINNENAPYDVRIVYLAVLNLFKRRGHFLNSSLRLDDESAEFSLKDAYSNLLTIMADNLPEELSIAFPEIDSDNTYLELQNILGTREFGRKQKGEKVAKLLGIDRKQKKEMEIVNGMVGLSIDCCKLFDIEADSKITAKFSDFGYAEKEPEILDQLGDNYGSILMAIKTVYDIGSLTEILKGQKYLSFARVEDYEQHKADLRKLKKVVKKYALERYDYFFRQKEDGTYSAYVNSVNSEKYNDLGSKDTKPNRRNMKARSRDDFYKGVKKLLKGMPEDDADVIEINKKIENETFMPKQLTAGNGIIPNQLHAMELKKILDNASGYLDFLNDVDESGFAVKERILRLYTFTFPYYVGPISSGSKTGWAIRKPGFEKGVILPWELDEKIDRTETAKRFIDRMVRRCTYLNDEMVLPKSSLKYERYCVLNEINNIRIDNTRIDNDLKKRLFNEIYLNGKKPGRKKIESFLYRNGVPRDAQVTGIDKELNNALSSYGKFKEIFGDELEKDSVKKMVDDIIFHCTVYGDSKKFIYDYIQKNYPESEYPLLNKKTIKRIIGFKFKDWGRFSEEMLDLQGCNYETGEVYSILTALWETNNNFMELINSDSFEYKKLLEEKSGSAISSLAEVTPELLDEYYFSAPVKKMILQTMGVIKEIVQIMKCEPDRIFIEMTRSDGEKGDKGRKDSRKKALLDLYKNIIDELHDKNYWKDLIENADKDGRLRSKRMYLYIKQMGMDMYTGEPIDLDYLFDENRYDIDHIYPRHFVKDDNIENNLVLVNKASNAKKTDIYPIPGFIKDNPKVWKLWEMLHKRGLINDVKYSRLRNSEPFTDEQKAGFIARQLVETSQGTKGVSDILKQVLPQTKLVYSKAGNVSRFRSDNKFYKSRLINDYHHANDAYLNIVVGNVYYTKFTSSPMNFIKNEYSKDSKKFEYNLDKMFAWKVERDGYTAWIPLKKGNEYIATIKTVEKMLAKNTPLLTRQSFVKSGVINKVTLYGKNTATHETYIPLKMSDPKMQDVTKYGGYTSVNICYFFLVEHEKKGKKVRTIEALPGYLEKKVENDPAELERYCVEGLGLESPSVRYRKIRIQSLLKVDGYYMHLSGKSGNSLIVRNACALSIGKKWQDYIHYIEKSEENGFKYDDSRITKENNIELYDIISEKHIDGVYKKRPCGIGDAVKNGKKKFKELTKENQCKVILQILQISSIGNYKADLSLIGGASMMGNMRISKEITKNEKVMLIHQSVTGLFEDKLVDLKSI
To be noted: TXTL; PAM NRVACNNN

Data set [5] has as its system T3, OMNI-114 (metagenomic, unknown).
T3 sequence: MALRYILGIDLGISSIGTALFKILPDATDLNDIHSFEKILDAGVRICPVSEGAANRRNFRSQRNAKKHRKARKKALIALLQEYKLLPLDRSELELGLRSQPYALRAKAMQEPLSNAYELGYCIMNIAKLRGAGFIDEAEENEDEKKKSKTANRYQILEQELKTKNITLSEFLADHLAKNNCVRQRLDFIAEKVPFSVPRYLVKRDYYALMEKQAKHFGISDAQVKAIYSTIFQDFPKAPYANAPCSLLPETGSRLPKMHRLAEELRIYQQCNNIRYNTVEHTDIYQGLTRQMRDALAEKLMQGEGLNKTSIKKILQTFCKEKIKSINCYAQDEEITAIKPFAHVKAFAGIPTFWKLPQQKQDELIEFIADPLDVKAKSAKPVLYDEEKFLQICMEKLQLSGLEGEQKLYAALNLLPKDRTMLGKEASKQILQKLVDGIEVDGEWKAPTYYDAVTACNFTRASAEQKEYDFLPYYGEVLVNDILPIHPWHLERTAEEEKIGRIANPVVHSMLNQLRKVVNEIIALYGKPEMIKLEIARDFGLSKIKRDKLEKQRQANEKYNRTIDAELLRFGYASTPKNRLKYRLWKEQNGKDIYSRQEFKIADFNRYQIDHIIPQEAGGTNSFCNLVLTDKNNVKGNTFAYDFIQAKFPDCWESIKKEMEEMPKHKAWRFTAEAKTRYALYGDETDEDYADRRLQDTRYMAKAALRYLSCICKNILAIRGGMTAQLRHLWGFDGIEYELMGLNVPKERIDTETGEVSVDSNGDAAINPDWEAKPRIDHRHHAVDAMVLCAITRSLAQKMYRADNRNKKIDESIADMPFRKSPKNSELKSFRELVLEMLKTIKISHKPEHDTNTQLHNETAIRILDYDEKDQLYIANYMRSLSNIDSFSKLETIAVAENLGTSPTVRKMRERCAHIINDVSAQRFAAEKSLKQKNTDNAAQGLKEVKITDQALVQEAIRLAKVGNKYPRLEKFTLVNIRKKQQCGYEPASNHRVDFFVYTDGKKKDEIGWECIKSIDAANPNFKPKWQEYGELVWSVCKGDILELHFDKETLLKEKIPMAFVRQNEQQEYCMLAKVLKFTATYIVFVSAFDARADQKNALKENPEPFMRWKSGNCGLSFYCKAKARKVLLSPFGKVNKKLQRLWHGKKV
To be noted: TXTL; PAM NRGGACNN

Data set [6] has as its system T4, OMNI-116 (metagenomic, unknown).
T4 sequence: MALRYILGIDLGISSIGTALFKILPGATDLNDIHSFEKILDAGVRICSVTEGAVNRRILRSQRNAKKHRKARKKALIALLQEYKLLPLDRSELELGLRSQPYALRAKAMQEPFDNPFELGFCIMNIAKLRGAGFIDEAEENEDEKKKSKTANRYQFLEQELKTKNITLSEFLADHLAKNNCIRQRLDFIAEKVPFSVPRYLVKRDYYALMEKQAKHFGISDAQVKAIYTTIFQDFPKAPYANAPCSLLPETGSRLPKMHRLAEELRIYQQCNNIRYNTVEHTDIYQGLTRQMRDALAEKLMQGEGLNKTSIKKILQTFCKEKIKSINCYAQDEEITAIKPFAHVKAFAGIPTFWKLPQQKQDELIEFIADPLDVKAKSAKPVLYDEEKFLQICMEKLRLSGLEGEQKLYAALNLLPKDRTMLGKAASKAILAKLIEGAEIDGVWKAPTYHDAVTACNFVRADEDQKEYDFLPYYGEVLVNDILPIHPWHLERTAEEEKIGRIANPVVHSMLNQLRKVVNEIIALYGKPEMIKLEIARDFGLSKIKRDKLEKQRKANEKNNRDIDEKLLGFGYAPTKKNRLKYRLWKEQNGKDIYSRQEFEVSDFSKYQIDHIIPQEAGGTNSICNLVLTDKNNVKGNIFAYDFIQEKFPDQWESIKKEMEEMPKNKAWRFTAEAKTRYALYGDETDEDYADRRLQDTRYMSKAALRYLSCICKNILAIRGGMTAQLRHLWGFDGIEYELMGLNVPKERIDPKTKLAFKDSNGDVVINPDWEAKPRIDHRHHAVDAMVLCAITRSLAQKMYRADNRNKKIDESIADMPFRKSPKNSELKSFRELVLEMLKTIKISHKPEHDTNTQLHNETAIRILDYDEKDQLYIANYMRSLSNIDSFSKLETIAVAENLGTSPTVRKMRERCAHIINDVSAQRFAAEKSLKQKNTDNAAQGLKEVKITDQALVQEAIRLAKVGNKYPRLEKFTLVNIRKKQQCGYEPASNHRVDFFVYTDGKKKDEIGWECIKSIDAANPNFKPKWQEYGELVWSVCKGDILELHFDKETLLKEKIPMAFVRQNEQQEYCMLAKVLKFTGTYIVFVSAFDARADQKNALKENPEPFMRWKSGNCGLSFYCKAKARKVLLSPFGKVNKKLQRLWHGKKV
The conditions noted are these: TXTL; PAM NRGGACNN

Sequence of OMNI-121 (metagenomic, unknown) (chain, as listed by the source): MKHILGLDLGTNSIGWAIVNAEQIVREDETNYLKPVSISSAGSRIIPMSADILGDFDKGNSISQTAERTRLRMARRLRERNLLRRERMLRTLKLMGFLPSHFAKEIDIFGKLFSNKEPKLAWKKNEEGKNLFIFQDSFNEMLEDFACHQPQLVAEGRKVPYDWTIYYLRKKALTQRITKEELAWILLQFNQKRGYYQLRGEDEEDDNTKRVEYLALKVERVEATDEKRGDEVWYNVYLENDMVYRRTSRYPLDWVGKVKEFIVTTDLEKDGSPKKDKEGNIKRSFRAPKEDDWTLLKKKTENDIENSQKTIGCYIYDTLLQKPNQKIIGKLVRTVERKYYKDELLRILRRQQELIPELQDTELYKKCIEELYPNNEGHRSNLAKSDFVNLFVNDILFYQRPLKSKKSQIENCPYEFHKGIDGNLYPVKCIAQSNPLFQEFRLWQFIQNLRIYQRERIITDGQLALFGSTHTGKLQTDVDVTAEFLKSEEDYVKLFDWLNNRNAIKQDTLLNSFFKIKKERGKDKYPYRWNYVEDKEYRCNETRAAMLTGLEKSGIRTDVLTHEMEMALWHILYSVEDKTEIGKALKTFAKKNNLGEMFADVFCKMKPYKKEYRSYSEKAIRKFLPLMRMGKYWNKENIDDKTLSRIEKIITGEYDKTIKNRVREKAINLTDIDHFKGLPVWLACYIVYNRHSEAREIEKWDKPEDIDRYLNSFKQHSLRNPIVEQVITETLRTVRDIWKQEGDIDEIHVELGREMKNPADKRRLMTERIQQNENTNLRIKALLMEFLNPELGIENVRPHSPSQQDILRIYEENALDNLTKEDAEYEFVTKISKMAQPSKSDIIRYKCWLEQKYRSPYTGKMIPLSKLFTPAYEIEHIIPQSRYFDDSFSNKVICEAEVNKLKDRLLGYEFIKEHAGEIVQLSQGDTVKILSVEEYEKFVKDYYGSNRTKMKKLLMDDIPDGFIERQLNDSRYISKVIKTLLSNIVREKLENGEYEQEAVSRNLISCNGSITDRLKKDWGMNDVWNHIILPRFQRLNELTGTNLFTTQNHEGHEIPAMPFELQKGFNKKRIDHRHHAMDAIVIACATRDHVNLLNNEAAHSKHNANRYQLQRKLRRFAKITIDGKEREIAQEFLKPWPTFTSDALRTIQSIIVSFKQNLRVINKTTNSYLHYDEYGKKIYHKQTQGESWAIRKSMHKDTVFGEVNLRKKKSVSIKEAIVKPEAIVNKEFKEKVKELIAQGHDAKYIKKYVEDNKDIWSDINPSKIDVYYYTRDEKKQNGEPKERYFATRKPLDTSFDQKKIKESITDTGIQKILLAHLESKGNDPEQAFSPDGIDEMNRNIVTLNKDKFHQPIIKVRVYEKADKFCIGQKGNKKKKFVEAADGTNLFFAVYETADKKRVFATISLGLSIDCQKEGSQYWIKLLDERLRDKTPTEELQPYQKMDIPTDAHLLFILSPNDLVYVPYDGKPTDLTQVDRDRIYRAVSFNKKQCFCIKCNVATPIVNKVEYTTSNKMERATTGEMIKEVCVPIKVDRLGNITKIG

With “GGAAGAGCAGAGCCUUGGUCUCGUUGUGAAUUGCUUGAAAUUCUUGAAAGAAUUUCAGCAAUUCACAAUAAGGAUUAUUCCGUUGUGAAAACAUUCAGGUUCCUGCCCUCGUCCUUUAACGGGGGCUUUUUU / GGAAGAGCAGAGCCTTGGTCTCNNNNNNNN / NNNNNNNNGAGACCAAGGCTCTGCTCTTCC [T2 sgRNA 24 V1 ; T2 protospacer + 8N PAM library (pbPOS T2)]”, in data set [1], the activity (1-depletion score) was 0.91.
“GGAAGAGCAGAGCCUUGGUCUCGUUGUGAAUUGCUUUCGAAAGAAGCAAUUCACAAUAAGGAUUAUUCCGUUGUGAAAACAUUUAAGAGAGUCCUUCGUCCUUCGGAGGAUUCUUUUUU / GGAAGAGCAGAGCCTTGGTCTCNNNNNNNN / NNNNNNNNGAGACCAAGGCTCTGCTCTTCC [T2 sgRNA 25 V1 ; T2 protospacer + 8N PAM library (pbPOS T2)]”: in data set [2], the activity (1-depletion score) is 0.84.
The sequence “GGAAGAGCAGAGCCUUGGUCUCGUUGUGAUUUGCUGAGGAAACUAGCAAAUCACAAUAAGGAUUAUUCCGUUGUGAACACAUUAGGUCCCAACCCAUCGUCCUUUAACGGUGGGUUAUUUUUU / GGAAGAGCAGAGCCTTGGTCTCNNNNNNNN / NNNNNNNNGAGACCAAGGCTCTGCTCTTCC [T2 sgRNA 22 V1 ; T2 protospacer + 8N PAM library (pbPOS T2)]” came in with an activity (1-depletion score) in data set [3] of 0.97.
For “GGAAGAGCAGAGCCUUGGUCUCGUUUGAGAGCCUUGUUAGAAAUAACAAGGCGAGUGCAAAUAAGGUUUAACCGAAUUCACCGUUUAUGGACCGCAUUGUGCGGAUUUUAAAAAAGACUUUCAAAGUCUUUUUU / GGAAGAGCAGAGCCTTGGTCTCNNNNNNNN / NNNNNNNNGAGACCAAGGCTCTGCTCTTCC [T2 sgRNA 23 V1 ; T2 protospacer + 8N PAM library (pbPOS T2)]”, the activity (1-depletion score) in data set [4] turned out to be 0.95.
Take “GGAAGAGCAGAGCCUUGGUCUCGUUUUACUUGCCUGUCGAAAGAUAGGCAAUAAAACAAAUAUAAUUUCUUUUGAAAUUAUAUGUAAAAUGUUUAAAGCCCUCCUUUUCAGGGGGGCUUUUUU / GGAAGAGCAGAGCCTTGGTCTCNNNNNNNN / NNNNNNNNGAGACCAAGGCTCTGCTCTTCC [T2 sgRNA 20 V1 ; T2 protospacer + 8N PAM library (pbPOS T2)]”: the activity (1-depletion score) in data set [5] and in data set [6] was 0.96 throughout.

The values are drawn from US20240425885.
